Measurements published in article PMC8447599.

Tests used:
[1] = target: Holo-PGP (chromophore-loaded photosensory domain of FphA) (A. nidulans); assay: BLI
[2] = target: Apo-PGP (photosensory domain of FphA without chromophore) (A. nidulans); assay: BLI
[3] = target: HoxA without the hydrophobic C-terminal membrane anchor (HoxA∆CTA), Strep-tagged (Alternaria alternata); assay: SEC

Work on “HoxA without the hydrophobic C-terminal membrane anchor (HoxA∆CTA), Strep-tagged (domain or fragment)” yielded a Kd [1] of 64.6 mM, a Kd [2] of 1130 nM and a stoichiometry N [3] of 2.
